In the experiment the target is T1, 6His-Slx5, recombinant (S. cerevisiae, UniProt P32828 1-619).
T1 construct: Slx5, S. cerevisiae; Host and purification are in the Appendix Supplementary Methods; source: recombinant
T1 sequence (looked up): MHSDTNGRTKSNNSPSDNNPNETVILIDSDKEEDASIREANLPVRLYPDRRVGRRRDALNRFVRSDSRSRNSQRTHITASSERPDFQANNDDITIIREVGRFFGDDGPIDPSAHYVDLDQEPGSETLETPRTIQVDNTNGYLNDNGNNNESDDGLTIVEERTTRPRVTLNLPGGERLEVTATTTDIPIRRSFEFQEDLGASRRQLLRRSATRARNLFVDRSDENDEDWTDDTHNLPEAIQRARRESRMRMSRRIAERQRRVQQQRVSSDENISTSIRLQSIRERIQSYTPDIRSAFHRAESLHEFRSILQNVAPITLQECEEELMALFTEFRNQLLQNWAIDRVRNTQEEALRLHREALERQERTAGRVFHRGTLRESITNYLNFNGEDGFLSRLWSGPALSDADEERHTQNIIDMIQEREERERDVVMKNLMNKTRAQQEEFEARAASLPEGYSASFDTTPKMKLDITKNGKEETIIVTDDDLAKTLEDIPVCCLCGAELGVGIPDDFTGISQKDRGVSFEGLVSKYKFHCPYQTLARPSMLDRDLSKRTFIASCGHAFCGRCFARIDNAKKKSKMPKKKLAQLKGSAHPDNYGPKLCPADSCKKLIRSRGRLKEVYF
Kind of experiment: pull-down; GST pull-down: recombinant purified GST or GST-Euc1 used to co-precipitate recombinant 6His-Slx5. The conditions noted are these: both partners purified.

B1: GST-Euc1, recombinant (natural protein, S. cerevisiae, UniProt Q04461 1-462, looked up)
chain: MPAREYNYVEGFGGYGSLDDDDSDRDSERRNHDLGQRTITTSPTGVSRHAALNRYMIPGRINPLFRPTDAAQPPIVSTSTSASATEPTNRIGPGRIKETPETNFNAFLIAQLTRMEEQNANLKEEISLMKKEQELFFLENQKKLEKGFKDINKYVEDVSAMKEVFKEVVGIMTGERIRFIDHTGENVTPQEAARVGNPSTSTQAHQSQSRSTNWQEYSMHASILAGDPRIKPEPGLSDFENGEYDGNESDENATTRNLPLNNPDSVSNADDSNNQLDGTGNENDIRNRRGCVGTSYKLNRAIQNVTDAAREYFEGLPGQPSVLSLERRYGSTWRRSAKERTLFTKRMTIIKRIIDIKDDPSKYGLSLPENKISRNQAIKVVENIRLGNNTFKGHHCRLSMSQLYEYFSKKMDKLEDYSLTLKRRGKPRRIFLLEEREARLSLQQPHSIPNSSTGTPEHDQDT
notes: Euc1 (Ymr111c), S. cerevisiae; Host and purification are in the Appendix Supplementary Methods; also called recombinant, non‐SUMOylated Euc1; source: recombinant, purified
As to B1, the binding result was “binds”.

The values are drawn from paper PMC6545562, “Slx5/Slx8‐dependent ubiquitin hotspots on chromatin contribute to stress tolerance” (The EMBO Journal, 2019).
